Measured values as given in patent US20130071921A1 (Pfizer, published 2013).

Legend:
[1] = molecular target: Cynomolgous monkey Dkk-1 (cynomolgous monkey); experiment: SPR BIAcore 3000, CM5 chip (Table 8)
[2] = molecular target: T1, Recombinant human Dkk-1 (R&D Systems cat no. 1096-DK/CF), 10xHis tag at the C terminal (human, UniProt O94907 32-266); experiment: SPR BIAcore 3000, CM5 chip (Table 8)
T1 construct: the actual N-terminus of the purified protein is marked in bold italic after residue 30, but the mark is an image lost in the text; also called rhuDkk-1; hDkk-1
T1 sequence: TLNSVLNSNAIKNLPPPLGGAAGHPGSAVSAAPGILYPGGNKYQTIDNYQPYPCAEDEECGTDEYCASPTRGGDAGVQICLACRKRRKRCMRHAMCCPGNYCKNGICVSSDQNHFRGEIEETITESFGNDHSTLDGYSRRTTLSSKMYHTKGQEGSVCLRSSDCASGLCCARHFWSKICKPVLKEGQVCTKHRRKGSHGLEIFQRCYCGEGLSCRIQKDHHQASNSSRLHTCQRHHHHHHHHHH

[3] = molecular target: T2, recombinant mouse Dkk-1 (R&D systems Cat No. 1765-DK/CF) (mouse, UniProt O54908 32-272); experiment: SPR BIAcore 3000, CM5 chip (Table 8)
T2 construct: Bought
T2 sequence (looked up): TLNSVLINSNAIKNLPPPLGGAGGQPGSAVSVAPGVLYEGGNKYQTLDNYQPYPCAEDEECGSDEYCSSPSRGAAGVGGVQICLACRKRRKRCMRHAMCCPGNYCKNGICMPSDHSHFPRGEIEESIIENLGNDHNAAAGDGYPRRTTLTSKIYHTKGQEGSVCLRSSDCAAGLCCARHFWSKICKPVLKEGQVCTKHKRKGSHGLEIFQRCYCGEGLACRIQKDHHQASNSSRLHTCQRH

[4] = molecular target: T3, recombinant rat Dkk-1 (R&D systems Cat No. 4010-DK/CF) (rat); experiment: SPR BIAcore 3000, CM5 chip (Table 8)
T3 construct: Bought

[5] = molecular target: T4, recombinant human Dkk3 (R&D systems Cat No. 1118-DK/CF) (human, UniProt Q9UBP4 22-350); experiment: SPR BIAcore, huMabJC18 captured by goat Fab2 anti-human Fc
T4 construct: Bought; also called hDkk-3

[6] = molecular target: T3, recombinant rat Dkk-1 (R&D systems Cat …); experiment: SPR BIAcore, huMabJC18 captured by goat Fab2 anti-human Fc, rat Dkk-1 injected
Description: (§1) For the interaction analyses of huMabJC18 with mouse or rat Dkk-1, low-levels of huMabJC18 (typically, 100-400 response units) were captured on individual flow cells by goat Fab2 anti-human Fc, which was pre-immobilized to the CM5 chip surface. A goat Fab2 anti-human Fc-saturated flow cell containing no humanized antibody served as reference channel. Mouse or rat Dkk-1 (R&D Systems) was titrated over the chip using 70.1 nM or 30.2 nM as top concentration, respectively, of a three-fold dilution series Association and dissociation phases were monitored at 100 μL/min for 90 seconds and 30 minutes, respectively. Capture surfaces for all experiments were regenerated with two 30 second pulses of […] H₃PO₄, except for the amine-coupled huMabJC18 surface used in the human Dkk-1 experiment, which was not regenerated.

[7] = molecular target: T2, recombinant mouse Dkk-1 (R&D systems …); experiment: SPR BIAcore, huMabJC18 captured by goat Fab2 anti-human Fc, mouse Dkk-1 injected
Description: as §1

[8] = molecular target: T5, recombinant human Dkk4 (R&D systems Cat No. 1269-DK/CF) (human, UniProt Q9UBT3 19-224); experiment: SPR BIAcore, huMabJC18 captured by goat Fab2 anti-human Fc, hDkk-4 titrated from 76.3 nM
T5 construct: Bought; also called hDkk-4
T5 sequence (looked up): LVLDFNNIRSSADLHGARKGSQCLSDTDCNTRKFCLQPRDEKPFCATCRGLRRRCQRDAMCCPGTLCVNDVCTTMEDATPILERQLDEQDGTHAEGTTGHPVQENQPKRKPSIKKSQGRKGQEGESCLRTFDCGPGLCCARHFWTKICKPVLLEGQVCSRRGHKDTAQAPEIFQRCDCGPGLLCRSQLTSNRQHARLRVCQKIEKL

[9] = molecular target: T6, recombinant mouse Dkk-2 (R&D systems Cat No. 2435-DK/CF) (mouse, UniProt Q9QYZ8 34-259, limits assumed); experiment: SPR BIAcore, huMabJC18 captured by goat Fab2 anti-human Fc, mDkk-2 titrated from 88.8 nM
T6 construct: Bought; also called mDkk-2
T6 sequence (looked up): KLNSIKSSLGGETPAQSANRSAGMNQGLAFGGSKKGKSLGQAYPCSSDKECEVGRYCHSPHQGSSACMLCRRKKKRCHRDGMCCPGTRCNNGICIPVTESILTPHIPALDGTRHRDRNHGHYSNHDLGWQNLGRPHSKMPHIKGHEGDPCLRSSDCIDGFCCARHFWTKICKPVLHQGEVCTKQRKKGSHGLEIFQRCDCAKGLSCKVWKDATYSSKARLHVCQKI

T4 sequence (Q9UBP4 22-350 limits assumed): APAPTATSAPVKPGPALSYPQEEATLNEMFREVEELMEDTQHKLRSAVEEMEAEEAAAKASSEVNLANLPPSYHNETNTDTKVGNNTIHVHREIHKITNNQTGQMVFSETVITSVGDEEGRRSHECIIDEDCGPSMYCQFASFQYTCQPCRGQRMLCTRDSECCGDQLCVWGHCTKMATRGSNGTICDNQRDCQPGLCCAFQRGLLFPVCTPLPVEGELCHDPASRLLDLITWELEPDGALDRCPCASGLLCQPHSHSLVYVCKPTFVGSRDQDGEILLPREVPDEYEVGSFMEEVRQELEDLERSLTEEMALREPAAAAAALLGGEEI

B1: huMabJC18, fully humanized anti-Dkk-1 monoclonal antibody (antibody, human IgG2, kappa, V domains shown)
VH: EVQLVESGGGLVQPGGSLRLSCAASGFTFSSYAISWVRQAPGKGLEWVASVSGTGLGFQTYYPDSVKGRFTISRDNAKNSLYLQMNSLRAEDTAVYYCATSLENYAFDYWGQGTTVTVSS
VL: EIVLTQSPATLSLSPGERATLSCRASESVDDFGISFINWYQQKPGQAPRLLIYAGSKQGSGIPARFSGSGSGTDFTLTISSLEPEDFAVYYCQQLKEVPPTFGGGTKVEIKR
notes: IgG2(delta a: A329S, P330S), kappa; also called huMabJC18 IgG
[1]
  T1/2: > 5 h
  koff: < 6e-05 s⁻¹
[2]
  Kd: < 2 pM
  T1/2: > 96.3 h
  koff: < 2e-06 s⁻¹
  kon: > 1.3e+06 M⁻¹ s⁻¹
[3]
  Kd: < 30 pM
  T1/2: > 4.94 h
  koff: < 3.9e-05 s⁻¹
  kon: > 1.3e+06 M⁻¹ s⁻¹
[4]
  Kd: < 100 pM
  T1/2: 0.92 h
  koff: 0.00021 s⁻¹
  kon: > 1.3e+06 M⁻¹ s⁻¹
[5]
  binding result: no binding
[6]
  Kd: < 100 pM
  T1/2: 0.92 h
  koff: 0.00021 s⁻¹
  kon: > 1.3e+06 M⁻¹ s⁻¹
[7]
  Kd: < 30 pM
  T1/2: > 4.94 h
  koff: < 3.9e-05 s⁻¹
  kon: > 1.3e+06 M⁻¹ s⁻¹
[8]
  Kd: 11000 pM
  T1/2: 1.12 h
  koff: 0.000172 s⁻¹
  kon: 15000 M⁻¹ s⁻¹
[9]
  Kd: 9000 pM
  T1/2: 1.14 h
  koff: 0.000169 s⁻¹
  kon: 18000 M⁻¹ s⁻¹
